How the values were obtained:
Conditions in all cases: 20 nM; 72 h
[1] = test system: MCF10A; assay: percent viability (nuclei count relative to siNT); higher = more viable cells
Description: (§1)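 After 72 h, cells were fixed and stained with Hoechst and anti-fibrillarin, and nucleoli per nucleus were counted with CellProfiler. Values are plate-adjusted percent effect for the one-nucleolus and 5+ nucleoli phenotypes, normalised to siNT (0%) and to the positive controls siNOL11 or siKIF11 (100%), as the mean of biological triplicates. Percent viability is the nuclei count relative to siNT.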

[2] = test system: MCF10A; assay: 5+ nucleoli phenotype percent effect (relative to siNT 0% and siKIF11 100%); higher = more cells with five or more nucleoli
Description: as §1

[3] = test system: MCF10A; assay: one-nucleolus phenotype percent effect (relative to siNT 0% and siNOL11 100%); higher = more cells with one nucleolus (ribosome biogenesis inhibition)
Description: as §1

## UAUUCAUUUAUCCCCAGCCUACA [hsa-miR-664a-3p]
[1]
  percent viability: 121%
[2]
  5+ nucleoli phenotype percent effect: 26%
[3]
  one-nucleolus phenotype percent effect: -21%

## GAGCCCCUCUCUGCUCUCCAG [hsa-miR-6769a-3p]
[1]
  percent viability: 92.9%
[2]
  5+ nucleoli phenotype percent effect: 9.99%
[3]
  one-nucleolus phenotype percent effect: -15.3%

## GGUCGUAUGUGUGACGCCAUUU [hsa-miR-489-5p]
[1]
  percent viability: 63%
[2]
  5+ nucleoli phenotype percent effect: -3.91%
[3]
  one-nucleolus phenotype percent effect: -3.74%

## ACCAAGUCUGCGUCAUCCUCUC [hsa-miR-3691-3p]
[1]
  percent viability: 63.2%
[2]
  5+ nucleoli phenotype percent effect: 0.0313%
[3]
  one-nucleolus phenotype percent effect: -5.26%

## UGGCUGCUUCCCUUGGUCUCCAG [hsa-miR-6762-3p]
[1]
  percent viability: 20.3%
[2]
  5+ nucleoli phenotype percent effect: -10.9%
[3]
  one-nucleolus phenotype percent effect: 44%

## UCCUGCCUUCCUCUGCACCAG [hsa-miR-6747-3p]
[1]
  percent viability: 27%
[2]
  5+ nucleoli phenotype percent effect: -28.9%
[3]
  one-nucleolus phenotype percent effect: 16%

## AACAUCACUGCAAGUCUUAACA [hsa-miR-499b-3p]
[1]
  percent viability: 77%
[2]
  5+ nucleoli phenotype percent effect: -7.16%
[3]
  one-nucleolus phenotype percent effect: -24.7%

## CCUGGCAUAUUUGGUAUAACUU [hsa-miR-4720-5p]
[1]
  percent viability: 31.3%
[2]
  5+ nucleoli phenotype percent effect: 46.4%
[3]
  one-nucleolus phenotype percent effect: 1.6%

## UGUAGUGUUUCCUACUUUAUGGA [hsa-miR-142-3p]
[1]
  percent viability: 82.8%
[2]
  5+ nucleoli phenotype percent effect: -20%
[3]
  one-nucleolus phenotype percent effect: 23.4%

## CAUUACAGCACAGCCAUUCU [hsa-miR-6504-3p]
[1]
  percent viability: 47.5%
[2]
  5+ nucleoli phenotype percent effect: -25.6%
[3]
  one-nucleolus phenotype percent effect: 2.85%

## ACAGGGCCGCAGAUGGAGACU [hsa-miR-3918]
[1]
  percent viability: 8.55%
[2]
  5+ nucleoli phenotype percent effect: -31.2%
[3]
  one-nucleolus phenotype percent effect: 50.3%

## AACUGGCCUACAAAGUCCCAGU [hsa-miR-193a-3p]
[1]
  percent viability: 21.9%
[2]
  5+ nucleoli phenotype percent effect: -15.2%
[3]
  one-nucleolus phenotype percent effect: 29.5%

## GUUGGGACAAGAGGACGGUCUU [hsa-miR-3122]
[1]
  percent viability: 87.3%
[2]
  5+ nucleoli phenotype percent effect: 22.1%
[3]
  one-nucleolus phenotype percent effect: -20.5%

## UCUGGCCUUGACUUGACUCUUU [hsa-miR-3922-3p]
[1]
  percent viability: 35.7%
[2]
  5+ nucleoli phenotype percent effect: 6.7%
[3]
  one-nucleolus phenotype percent effect: -2.7%

## UCCCUACCCCUCCACUCCCCA [hsa-miR-3162-3p]
[1]
  percent viability: 75.9%
[2]
  5+ nucleoli phenotype percent effect: 53.4%
[3]
  one-nucleolus phenotype percent effect: -5.78%

## AUAGGACUCAUAUAGUGCCAG [hsa-miR-3117-3p]
[1]
  percent viability: 35.4%
[2]
  5+ nucleoli phenotype percent effect: 33%
[3]
  one-nucleolus phenotype percent effect: -13.2%

## GGGGCUGUGAUUGACCAGCAGG [hsa-miR-4675]
[1]
  percent viability: 24.1%
[2]
  5+ nucleoli phenotype percent effect: -11.5%
[3]
  one-nucleolus phenotype percent effect: 10.5%

## UCUGGCUAUCUCACGAGACUGU [hsa-miR-4794]
[1]
  percent viability: 35.9%
[2]
  5+ nucleoli phenotype percent effect: 3.59%
[3]
  one-nucleolus phenotype percent effect: 26.9%

## UUACGGACCAGCUAAGGGAGGC [hsa-miR-4788]
[1]
  percent viability: 43.7%
[2]
  5+ nucleoli phenotype percent effect: 9.13%
[3]
  one-nucleolus phenotype percent effect: -0.639%

## CAAAAACUGCAUUACUUUUGC [hsa-miR-548j-3p]
[1]
  percent viability: 118%
[2]
  5+ nucleoli phenotype percent effect: 32.5%
[3]
  one-nucleolus phenotype percent effect: -29.2%

## UUGGGGUGGAGGGCCAAGGAGC [hsa-miR-6819-5p]
[1]
  percent viability: 3.49%
[2]
  5+ nucleoli phenotype percent effect: 2.57%
[3]
  one-nucleolus phenotype percent effect: 37.8%

## ACCUUGCCUUGCUGCCCGGGCC [hsa-miR-1915-5p]
[1]
  percent viability: 34.9%
[2]
  5+ nucleoli phenotype percent effect: -40.4%
[3]
  one-nucleolus phenotype percent effect: 39.7%

## GGCUAGCAACAGCGCUUACCU [hsa-miR-621]
[1]
  percent viability: 51.6%
[2]
  5+ nucleoli phenotype percent effect: -15.8%
[3]
  one-nucleolus phenotype percent effect: 15.2%

## CAUCCCUUGCAUGGUGGAGGG [hsa-miR-188-5p]
[1]
  percent viability: 98.4%
[2]
  5+ nucleoli phenotype percent effect: 45.6%
[3]
  one-nucleolus phenotype percent effect: -13.1%

## AAGGGGCUGGGGGAGCACA [hsa-miR-6085]
[1]
  percent viability: 22%
[2]
  5+ nucleoli phenotype percent effect: -17.6%
[3]
  one-nucleolus phenotype percent effect: 33.3%

## ACAUACUUCUUUAUAUGCCCAU [hsa-miR-1-5p]
[1]
  percent viability: 47%
[2]
  5+ nucleoli phenotype percent effect: -8.68%
[3]
  one-nucleolus phenotype percent effect: 11.9%

## AUCGUGCAUCCCUUUAGAGUGU [hsa-miR-517a-3p]
[1]
  percent viability: 46.8%
[2]
  5+ nucleoli phenotype percent effect: -11.8%
[3]
  one-nucleolus phenotype percent effect: 3.74%

## UGAGGAUGGAUAGCAAGGAAGCC [hsa-miR-3605-5p]
[1]
  percent viability: 69.7%
[2]
  5+ nucleoli phenotype percent effect: 12%
[3]
  one-nucleolus phenotype percent effect: -3.45%

## GGCUCAAUCUCUGGUCCUGCAGCC [hsa-miR-7158-5p]
[1]
  percent viability: 132%
[2]
  5+ nucleoli phenotype percent effect: 25.6%
[3]
  one-nucleolus phenotype percent effect: -21.5%

## UCUGCACUGUGAGUUGGCUGGCU [hsa-miR-4793-3p]
[1]
  percent viability: 44.7%
[2]
  5+ nucleoli phenotype percent effect: -3.16%
[3]
  one-nucleolus phenotype percent effect: 10.7%

## AAUAUAACACAGAUGGCCUGU [hsa-miR-410]
[1]
  percent viability: 164%
[2]
  5+ nucleoli phenotype percent effect: 27.3%
[3]
  one-nucleolus phenotype percent effect: -9.74%

## UACGGUGAGCCUGUCAUUAUUC [hsa-miR-433-5p]
[1]
  percent viability: 32.9%
[2]
  5+ nucleoli phenotype percent effect: -4.1%
[3]
  one-nucleolus phenotype percent effect: 4.21%

## AAAAACUGCAAUCACUUUUGC [hsa-miR-548az-3p]
[1]
  percent viability: 62%
[2]
  5+ nucleoli phenotype percent effect: 7.93%
[3]
  one-nucleolus phenotype percent effect: -6.63%

## GAAGGACCUGCACCUUCG [hsa-miR-6816-3p]
[1]
  percent viability: 35.3%
[2]
  5+ nucleoli phenotype percent effect: -36.7%
[3]
  one-nucleolus phenotype percent effect: 49.8%

## AGGUGGGUAUGGAGGAGCCCU [hsa-miR-6769a-5p]
[1]
  percent viability: 14.3%
[2]
  5+ nucleoli phenotype percent effect: -16.7%
[3]
  one-nucleolus phenotype percent effect: 39.6%

## AUCAUACAAGGACAAUUUCUUU [hsa-miR-539-3p]
[1]
  percent viability: 39.4%
[2]
  5+ nucleoli phenotype percent effect: -9.08%
[3]
  one-nucleolus phenotype percent effect: -9.28%

## CUCAUCUGCAAAGAAGUAAGUG [hsa-miR-452-3p]
[1]
  percent viability: 21.6%
[2]
  5+ nucleoli phenotype percent effect: -40.5%
[3]
  one-nucleolus phenotype percent effect: 48.1%

## GGAGGCGCAGGCUCGGAAAGGCG [hsa-miR-3197]
[1]
  percent viability: 41.9%
[2]
  5+ nucleoli phenotype percent effect: 13.6%
[3]
  one-nucleolus phenotype percent effect: -2.74%

## CAACGGAAUCCCAAAAGCAGCUG [hsa-miR-191-5p]
[1]
  percent viability: 29.2%
[2]
  5+ nucleoli phenotype percent effect: 2.25%
[3]
  one-nucleolus phenotype percent effect: 11.8%

## UCUGGCUGUUGUGGUGUGCAA [hsa-miR-3064-5p]
[1]
  percent viability: 17.8%
[2]
  5+ nucleoli phenotype percent effect: -22.7%
[3]
  one-nucleolus phenotype percent effect: 46.2%

## GAAUCGGAAAGGAGGCGCCG [hsa-miR-3610]
[1]
  percent viability: 93.4%
[2]
  5+ nucleoli phenotype percent effect: 19.9%
[3]
  one-nucleolus phenotype percent effect: -7.32%

## CAACCUGGAGGACUCCAUGCUG [hsa-miR-490-3p]
[1]
  percent viability: 41.3%
[2]
  5+ nucleoli phenotype percent effect: 55.8%
[3]
  one-nucleolus phenotype percent effect: -12.6%

## CCAGGGAGGCUGGUUUGGAGGA [hsa-miR-6754-5p]
[1]
  percent viability: 38%
[2]
  5+ nucleoli phenotype percent effect: -21.9%
[3]
  one-nucleolus phenotype percent effect: 22.6%

## AUGGUACCCUGGCAUACUGAGU [hsa-miR-1263]
[1]
  percent viability: 24.8%
[2]
  5+ nucleoli phenotype percent effect: -22.2%
[3]
  one-nucleolus phenotype percent effect: 49.6%

## UGCAACGAACCUGAGCCACUGA [hsa-miR-891a]
[1]
  percent viability: 57.7%
[2]
  5+ nucleoli phenotype percent effect: 1.67%
[3]
  one-nucleolus phenotype percent effect: -1.85%

— the supplement of paper PMC10899765
